The target in assay [1] is T1, WWP1.1 WW domain expressed as GST fusion protein (human).
T1 construct: Whole WWP1 entry named; not shown: glutathione S-transferase (GST) fusion partner
The experiment in a line: cross affinity mapping, GST-WW fusion.

Assay [2] deals with T2, WWP2.1 WW domain expressed as GST fusion protein (human).
T2 construct: Whole WWP2 entry named; not shown: glutathione S-transferase (GST) fusion partner
The assay can be described thus: cross affinity mapping, GST-WW fusion.

In assay [3] the target is T3, WWP1.2 WW domain expressed as GST fusion protein (human).
T3 construct: Whole WWP1 entry named; not shown: glutathione S-transferase (GST) fusion partner
T3 sequence (chain, as listed by the source): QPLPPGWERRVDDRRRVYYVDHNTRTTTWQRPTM
The experiment in a line: cross affinity mapping, GST-WW fusion.

For assay [4], the target named is T4, WWP2.4 WW domain expressed as GST fusion protein (human).
T4 construct: Whole WWP2 entry named; also called WW2.4; not shown: glutathione S-transferase (GST) fusion partner
T4 sequence (chain, as listed by the source): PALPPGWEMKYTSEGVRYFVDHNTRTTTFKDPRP
The experiment in a line: cross affinity mapping, GST-WW fusion.

Assay [5] addresses T5, WWP1.3 WW domain expressed as GST fusion protein (human).
T5 construct: Label WWP1.3 follows the pattern of the printed labels; whole WWP1 entry named; not shown: glutathione S-transferase (GST) fusion partner
The assay can be described thus: cross affinity mapping, GST-WW fusion.

The target of assay [6] is T6, WWP2.2 WW domain expressed as GST fusion protein (human).
T6 construct: Whole WWP2 entry named; not shown: glutathione S-transferase (GST) fusion partner
T6 sequence (chain, as listed by the source): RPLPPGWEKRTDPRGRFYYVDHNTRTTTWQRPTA
The assay can be described thus: cross affinity mapping, GST-WW fusion.

Assay [7] concerns the target T7, WWP1.4 WW domain expressed as GST fusion protein (human).
T7 construct: Whole WWP1 entry named; not shown: glutathione S-transferase (GST) fusion partner
The assay can be described thus: cross affinity mapping, GST-WW fusion.

The target of assay [8] is T8, WWP2.3 WW domain expressed as GST fusion protein (human).
T8 construct: Whole WWP2 entry named; not shown: glutathione S-transferase (GST) fusion partner
T8 sequence (chain, as listed by the source): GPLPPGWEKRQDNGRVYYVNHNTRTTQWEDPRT
The assay can be described thus: cross affinity mapping, GST-WW fusion.

The target in assay [9] is T9, WWP3 WW domain expressed as GST fusion protein (human).
T9 construct: Whole WWP3 entry named; not shown: glutathione S-transferase (GST) fusion partner
T9 sequence (chain, as listed by the source): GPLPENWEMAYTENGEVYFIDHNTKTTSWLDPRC
The assay can be described thus: ELISA cross affinity mapping, GST-WW fusion. In general terms: In an ELISA, binding on a coated surface is turned into a signal by an enzyme label.

In assay [10] the target is T1, WWP1.1 WW domain expressed as GST …. The experiment in a line: ELISA cross affinity mapping, GST-WW fusion.
Method: (§1) Briefly, microtiter wells were coated with 1–5 μg of fusion protein in 100 mM NaHCO_3, blocked with Super-Block TBS (Pierce) and washed four times with PBS, 0.05% Tween 20. Specific peptide-streptavidin/alkaline phosphatase complexes were added as above and unbound complexes washed five times with PBS, 0.05% Tween 20. Following addition of PNP substrate (p-nitrophenyl phosphate, Kirkegard & Perry Labs), peptide binding was quantitated after 30 min. at O.D. 405 nm. Relative binding measurements from three independent determinations were assigned to a scale as follows: O.D. units 0–0.5=(−), 0.5–1.0=(+), 1.0–2.0=(++), 2.0–3.0=(+++), >3.0=(++++).
The target in assay [11] is T2, WWP2.1 WW domain expressed as GST …. The assay can be described thus: ELISA cross affinity mapping, GST-WW fusion.
Method: as §1
For assay [12], the target named is T3, WWP1.2 WW domain expressed as GST …. The experiment in a line: ELISA cross affinity mapping, GST-WW fusion.
Method: as §1
The target in assay [13] is T4, WWP2.4 WW domain expressed as GST …. The experiment in a line: ELISA cross affinity mapping, GST-WW fusion.
Method: as §1
Assay [14] deals with T5, WWP1.3 WW domain expressed as GST …. The assay can be described thus: ELISA cross affinity mapping, GST-WW fusion.
Method: as §1
Assay [15] addresses T6, WWP2.2 WW domain expressed as GST …. The experiment in a line: ELISA cross affinity mapping, GST-WW fusion.
Method: as §1
For assay [16], the target named is T7, WWP1.4 WW domain expressed as GST …. The assay can be described thus: ELISA cross affinity mapping, GST-WW fusion.
Method: as §1
Assay [17] concerns the target T8, WWP2.3 WW domain expressed as GST …. The assay can be described thus: ELISA cross affinity mapping, GST-WW fusion.
Method: as §1

No end group written: not given here. *: point of attachment. Biotin = O=C1N[C@H]2[C@H](CS[C@H]2CCCCC(=O)*)N1

T1 sequence (chain, as listed by the source): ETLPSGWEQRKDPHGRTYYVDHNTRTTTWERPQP
T5 sequence (chain, as listed by the source): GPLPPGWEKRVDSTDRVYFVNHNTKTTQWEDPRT
T2 sequence (chain, as listed by the source): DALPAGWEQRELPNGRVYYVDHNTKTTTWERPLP

Turning to Biotin-PGTPPPNHDSLRL [ENaCβ-Y618H peptide], the binding result in [1], in assay [2], in assay [3], in [4], in assay [5] and in assay [6] was “no binding” each time. The binding result in assay [7] and in assay [8] was “no binding” throughout.

Regarding Biotin-SGSGYVQPPPPPYPGPM (Tested as SA-AP complex) [WBP-2A peptide (biotin-SGSGYVQPPPPPYPGPM)], the binding result in [9] is “binds”.

As to Biotin-SGSGYVQPPPAPYPGPM [WBP-2A-Pro4 (alanine substitution of the third proline of the PPPPY motif of WBP-2A)], the binding result in [10], in assay [11], in assay [12], in assay [13], in assay [9] and in [14] was “no binding” in each case. Moreover, the binding result in assay [15], in [16] and in assay [17] was “no binding” throughout.

In the case of Biotin-SGSGPGTPYPPPPEFY (Tested as SA-AP complex) [WBP-2B peptide (biotin-SGSGPGTPYPPPPEFY)], the binding result in assay [10], in assay [11], in assay [12], in assay [13], in assay [9] and in assay [14] was “no binding” each time. The binding result in [15], in [16] and in assay [17] was “no binding” throughout.

NRLDLPPAETFED (also: biotinylated, Short peptide): the binding result in assay [1], in assay [2], in assay [3], in assay [4], in assay [5] and in [6] was “no binding” each time. Further, the binding result in assay [7] and in assay [8] was “no binding” throughout.

Turning to Biotin-PGTPPLNYDSLRL [ENaCβ-P616L peptide], the binding result in assay [1], in assay [2], in assay [3], in [4], in [5] and in assay [6] was “no binding” throughout. Besides, the binding result in [7] and in assay [8] was “no binding” throughout.

On to Biotin-SGSGPGTPPPPYTVGPGY (Tested as streptavidin-enzyme complex) [WBP-1 peptide (biotin-SGSGPGTPPPPYTVGPGY)], for which, in [9], the binding result is “no binding”.

NRLDLPPAKSYEQ (also: biotinylated, Short peptide): the binding result in assay [1], in assay [2], in [3], in assay [4], in assay [5] and in assay [6] was “no binding” each time. Moreover, the binding result in assay [7] and in [8] was “no binding” each time.

For the molecule Biotin-SGSGPGTPPAPYTVGPGY (not fully specified) [WBP-1-Pro3 (alanine substitution at the third proline position of the PPPPY motif of WBP-1)], the binding result in [10], in [11], in assay [12], in assay [13], in [14] and in assay [15] was “no binding” each time. Further, the binding result in assay [16] and in assay [17] was “no binding” throughout.
